Source: paper PMC4285798

Experiments:
Experiment in all cases: FRET or BRET; CFP (donor) and YFP (acceptor) fusions co-expressed from pETDuet-1 in E. coli; late exponential cells washed once with 0.9% NaCl, 150 μl in a 96 well plate, Tecan Infinite M200 Pro; excitation 435 nm, emission 466-610 nm; RCY = ratio of the emission maxima of eCFP (480 nm) and eYFP (525 nm); RCY 1.1–1.3 read as enrichment/interaction, 0.9–1.1 as approximation without interaction, <0.9 as no FRET
[1] = molecular target: DivIVA-YFP (C. glutamicum)
[2] = molecular target: DivIVAI18D-YFP (C. glutamicum)
[3] = molecular target: DivIVAI18F-YFP (C. glutamicum)
[4] = molecular target: DivIVAK20R-YFP (C. glutamicum)
[5] = molecular target: DivIVAΔM-YFP (C. glutamicum)

| RCY (CFP/YFP emission ratio, FRET) [1] | RCY (CFP/YFP emission ratio, FRET) [2] | RCY (CFP/YFP emission ratio, FRET) [3] | RCY (CFP/YFP emission ratio, FRET) [4] | RCY (CFP/YFP emission ratio, FRET) [5] | Substance |
| --- | --- | --- | --- | --- | --- |
| 1.16 |  |  |  |  | ParB-CFP (natural protein) |
| 1.15 | 1.14 | 1.27 | 1.11 | 1.19 | RodA-CFP (natural protein) |
| 1.1 |  |  |  |  | RodAE438G-CFP (natural protein) |
